US20030208060A1

Assays:
[1] = biological target: triglyceride-rich lipoproteins; test: co-incubation with TGRLP, cell binding and ligand blots
[2] = biological target: trypsinized VLDL Sf100-400, devoid of apoE (tryp-VLDL) (human) (UniProt P04114); test: inhibition of 125I-tryp-VLDL1 binding to THP-1 macrophages, 4 °C, LpL 1.6 µg/ml
[3] = biological target: trypsinized VLDL2 (tryp-VLDL2) (human) (UniProt P04114); test: inhibition of 125I-tryp-VLDL2 binding to THP-1 macrophages, 4 °C, LpL 1.0 µg/ml

- percent inhibition of specific binding [1]: 25%
- Percent Inhibition [2]: 26%
- Percent Inhibition [3]: 17%
B1: lipoprotein lipase (enzyme, UniProt P06858 28-475, looked up, species assumed)
Lipoprotein lipase: ADQRRDFIDIESKFALRTPEDTAEDTCHLIPGVAESVATCHFNHSSKTFMVIHGWTVTGMYESWVPKLVAALYKREPDSNVIVVDWLSRAQEHYPVSAGYTKLVGQDVARFINWMEEEFNYPLDNVHLLGYSLGAHAAGIAGSLTNKKVNRITGLDPAGPNFEYAEAPSRLSPDDADFVDVLHTFTRGSPGRSIGIQKPVGHVDIYPNGGTFQPGCNIGEAIRVIAERGLGDVDQLVKCSHERSIHLFIDSLLNEENPSKAYRCSSKEAFEKGLCLSCRKNRCNNLGYEINKVRAKRSSKMYLKTRSQMPYKVFHYQVKIHFSGTESETHTNQAFEISLYGTVAESENIPFTLPEVSTNKTYSFLIYTEVDIGELLMLKLKWKSDSYFSWSDWWSSPGFAIQKIRVKAGETQKKVIFCSREKVSHLQKGKAPAVFVKCHDKSLNKKSG
